Consider four molecules from article PMC2787013, “DNA Specificity Determinants Associate with Distinct Transcription Factor Functions”.

Test in all cases: EMSA; Protein 3-fold dilutions with 1e-11 (M) 32P-dsDNA, 30 min on ice, 6% polyacrylamide gel; binding buffer as in earlier paper (not given); protein dialysis buffer 10 mM Tris pH 7.9, 0.5 mM EDTA, 50 mM KCl, 1 mM DTT, 10% glycerol
What all share (conditions): protein: recombinant; tags: N-terminal 6xHis (pET28a); label: 32P; (only one strand given)
Background: In EMSA bound probe runs differently from free probe, usually more slowly.

In data set [1] the target is T1, ELF1 (human, UniProt P32519 1-619).
T1 sequence (P32519 whole entry): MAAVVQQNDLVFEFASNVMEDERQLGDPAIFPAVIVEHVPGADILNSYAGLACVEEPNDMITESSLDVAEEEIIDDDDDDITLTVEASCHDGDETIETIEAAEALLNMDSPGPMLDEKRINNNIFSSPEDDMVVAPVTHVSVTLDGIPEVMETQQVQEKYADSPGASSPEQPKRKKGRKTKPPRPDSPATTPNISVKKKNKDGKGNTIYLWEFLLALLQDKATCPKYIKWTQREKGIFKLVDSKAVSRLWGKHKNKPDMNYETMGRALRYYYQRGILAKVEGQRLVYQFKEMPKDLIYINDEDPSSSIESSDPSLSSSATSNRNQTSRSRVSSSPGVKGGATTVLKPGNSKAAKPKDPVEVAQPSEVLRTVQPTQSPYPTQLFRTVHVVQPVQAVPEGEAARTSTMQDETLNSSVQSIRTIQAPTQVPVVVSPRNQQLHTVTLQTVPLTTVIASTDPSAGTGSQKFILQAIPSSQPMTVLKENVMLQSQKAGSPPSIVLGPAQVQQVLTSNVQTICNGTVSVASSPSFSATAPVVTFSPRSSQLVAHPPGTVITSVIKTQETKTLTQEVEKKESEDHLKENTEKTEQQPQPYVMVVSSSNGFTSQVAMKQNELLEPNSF
The target of data set [2] is T2, ETS1 (p51) (human, UniProt P14921 1-441).
T2 sequence: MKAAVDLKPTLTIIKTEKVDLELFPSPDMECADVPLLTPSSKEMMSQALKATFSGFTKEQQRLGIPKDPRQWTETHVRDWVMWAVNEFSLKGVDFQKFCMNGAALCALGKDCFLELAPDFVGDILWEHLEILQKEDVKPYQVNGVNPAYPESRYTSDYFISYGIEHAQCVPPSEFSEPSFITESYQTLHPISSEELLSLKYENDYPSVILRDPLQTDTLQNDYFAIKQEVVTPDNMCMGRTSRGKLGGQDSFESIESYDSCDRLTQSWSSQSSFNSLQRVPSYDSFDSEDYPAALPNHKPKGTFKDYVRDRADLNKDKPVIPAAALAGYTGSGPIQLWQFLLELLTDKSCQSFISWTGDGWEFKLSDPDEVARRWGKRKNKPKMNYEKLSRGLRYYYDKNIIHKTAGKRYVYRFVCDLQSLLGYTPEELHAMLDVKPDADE

Data set [3] concerns the target T1, ELF1. This is another data set of the same source.
For data set [4], the target named is T2, ETS1 (p51). The source holds these as a separate data set.

B1: ETS consensus CCGGAAGT (dsDNA)
DNA 1: GGCCAAGCCGGAAGTGTGTGGTAAACACTTT
DNA 2: AAAGTGTTTACCACACACTTCCGGCTTGGCC
The Kd is the equilibrium constant for the complex coming apart. For B1, the Kd was 0.17 nM in data set [1] and 1.7 nM in data set [2].

B2: double variant CAGGATGT (dsDNA)
DNA 1: GGCCAAGCAGGATGTGTGTGGTAAACACTTT
DNA 2: AAAGTGTTTACCACACACATCCTGCTTGGCC
Consider B2, for which the binding signal in data set [3] was 18.3 fold decrease in affinity vs N1; in data set [4], 2.4 fold decrease in affinity vs N1.

B3: A to T variant CCGGATGT (dsDNA)
DNA 1: GGCCAAGCCGGATGTGTGTGGTAAACACTTT
DNA 2: AAAGTGTTTACCACACACATCCGGCTTGGCC
B3: the binding signal in data set [3] is 3.6 fold decrease in affinity vs N1; in data set [4], 1 fold decrease in affinity vs N1.

B4: C to A variant CAGGAAGT (dsDNA)
DNA 1: GGCCAAGCAGGAAGTGTGTGGTAAACACTTT
DNA 2: AAAGTGTTTACCACACACTTCCTGCTTGGCC
B4: the binding signal was 1.9 fold decrease in affinity vs N1 in data set [3] and 1.5 fold decrease in affinity vs N1 in data set [4].
